Where a SMILES comes first, the peptide text is derived from it.

Assay [1] concerns the target VPS4A MIT domain (residues 1–84) (human) (UniProt Q9UN37). Put plainly: ITC; titrants (GST-pUL71, GST-CHMP6 or peptides) titrated into VPS4A MIT domain in the cell; 25°C; 50 mM HEPES pH 8, 100 mM NaCl, 0.5 mM TCEP; 19×2 μL or 12×3 μL injections; one-site binding model.
Assay [2] has as its target T1, human VPS4 MIT domain (residues 1–84) (Homo sapiens, UniProt Q9UN37).
T1 construct: The MIT domain (residues 1–84) of human VPS4A (UniProt Q9UN37); GST with human rhinovirus 3C cleavage site (N, cleaved yes); made in house; host or cells: Escherichia coli T7 Express lysY/Iq
T1 sequence (Q9UN37 1-84): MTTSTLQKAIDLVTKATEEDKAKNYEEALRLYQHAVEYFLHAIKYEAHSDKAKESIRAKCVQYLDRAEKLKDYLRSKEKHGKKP
Put plainly: Isothermal titration calorimetry, titrant into VPS4A MIT domain. The class given is binding. As to conditions: ITC, 25°C, pH 8. As for the experimental part:
Proteins were expressed in Escherichia coli T7 Express lysY/I^q cells (New England Biolabs) in 2×TY medium at 37°C to an OD600 of 0.8–1.2 before inducing protein expression by addition of 0.4 mM isopropyl β-D-thiogalactopyranoside (IPTG). Expression of GST-tagged pUL71 truncations was induced at 37°C for 3 h, whereas expression of GST-VPS4A MIT domain was induced at 22°C for 16 h. Cells were resuspended at 4°C in GSH lysis buffer (20 mM Tris pH 7.5, 300 mM NaCl, 0.5 mM MgCl2, 1.4 mM β-mercaptoethanol, 0.05% TWEEN-20) supplemented with 200–400 U bovine DNase I (Merck) and 200 μL EDTA-free protease inhibitor cocktail (Merck) before lysis using a TS series cell disruptor (Constant Systems) at 24 kpsi. Lysates were cleared by centrifugation (40,000×g, 30 min, 4°C) and incubated with glutathione Sepharose 4B (Cytiva) for 1 h at 4°C before extensive washing (≥ 20 column volumes) with GSH wash buffer (20 mM Tris pH 7.5, 300 mM NaCl, 1 mM DTT) and elution using wash buffer supplemented with 25 mM reduced L-glutathione. GST-tagged pUL71 truncations were subjected to size-exclusion chromatography (SEC) using a Superdex 200 16/600 column (Cytiva) equilibrated in GSH wash buffer. For GST-VPS4A MIT domain, the GST tag was removed by supplementing the pooled SEC fractions containing the protein of interest with 0.5 mM EDTA and incubating overnight at 4°C with 50 μg of GST-tagged human rhinovirus 3C protease. Free GST and uncleaved GST-VPS4A MIT domain were captured using glutathione Sepharose and the cleaved complex was subjected to SEC using an S75 10/300 GL column (Cytiva) equilibrated in 50 mM HEPES pH 8, 100 mM NaCl, 0.5 mM Tris(2-carboxyethyl)phosphine (TCEP).
Where necessary, proteins were exchanged into ITC buffer (50 mM HEPES pH 8, 100 mM NaCl, 0.5 mM TCEP) by SEC using Superdex 200 (GST-tagged titrants) or 75 (VPS4 MIT domain) 10/300 GL columns (Cytiva), or by extensive dialysis using tubing with a 3.5 kDa molecular weight cut-off (Pierce). Protein concentrations were estimated from A280 using extinction coefficients calculated from the protein sequence. Peptides encoding residues 166–181 of human CHMP6 or various truncations of HCMV pUL71 were purchased from Genscript at >95% purity and the dry peptides were resuspended in ITC buffer to the desired concentration. ITC experiments were performed at 25°C using an MicroCal PEAQ-ITC automated calorimeter (Malvern Panalytical). Titrants (GST-pUL71, GST-CHMP6 or peptides) were titrated into VPS4A MIT domain using either 19×2 μL or 12×3 μL injections (S1 Table). Data were analysed using the MicroCal PEAQ-ITC analysis software (Malvern Panalytical) and fitted using a one-site binding model.
S1 Table. Thermodynamic properties of the interactions with VPS4 MIT domain. As quantitated by isothermal titration calorimetry (ITC). Data for independent experiments are shown. For all, the cell contained human VPS4 MIT domain (residues 1-84) and pUL71 is from HCMV unless stated otherwise. –, no binding detected.

The next assay has as its target yeast Vps4. The conditions noted are these: reported; cited from earlier work.
A further assay relates to pUL71. Put plainly: Co-transfection localisation of VPS4A-FLAG variants with pUL71, COS-7 cells. The class given is cell-based, HCMV. The conditions noted are these: COS-7, co-transfection. The text has this:
Human VPS4A-FLAG, C-terminally fused with the FLAG-tag epitope, was expressed from expression vector pBJ5-Vps4Flag (gift from A. Calistri, University of Padova, Italy). Cloning of this vector is described in detail in [100]. The VPS4-FLAGΔMIT variant, comprising VPS4A residues 119–437, was generated from pBJ5-Vps4Flag using primers bex_VPS4aa119-437 and Flag+Stop_rev. Point mutant VPS4A-FLAG-V13D was amplified using primers Vps4A-V13D_for and Flag+Stop_rev. Variant VPS4-FLAG-L64D was generated by fusion PCR where primers Vps4_for and Vps4A-L64D_rev generated a fragment that was used as forward primer in a second PCR together with primer Flag+Stop_rev to generate full-length VPS4A. All VPS4A variants were cloned using restriction enzymes into backbone vector pEF1/Myc-His C.
Intracellular localisation studies after transient expression were performed in COS-7 cells that were seeded with 3.3×10^4 cells per well on glass coverslips in a 24-well plate. The next day, cells were transfected with the respective DNAs by using Lipofectamine LTX (Invitrogen) according to the manufacturer’s protocol. Between 20 to 24 hours post-transfection, cells were fixed with 4% (v/v) paraformaldehyde (PFA) in PBS for 10 min at 4°C and prepared for localisation analysis by using indirect immunofluorescence staining.

In assay [1], pUL71 (300–325) peptide gave a dH of -6.22 kcal/mol and a stoichiometry N of 1.38.
In assay [1], “HHV6 pU44 vMIM2 peptide (residues 174–199) (from UniProt A0A140AK71 174-199)” displayed a Kd of 30900 nM, a dH of -7.17 kcal/mol and a stoichiometry N of 1.18.
In assay [1], “GST-pUL71 (300–361) (domain or fragment)” displayed a Kd of 2980 nM, a dH of -10.1 kcal/mol and a stoichiometry N of 0.87.
In the same order, the values of “CHMP6 MIM2 peptide (from UniProt Q96FZ7 166-181)” are 11200 nM, -1.33 kcal/mol and 1.02.
As to GST-pUL71(283–361) (domain or fragment), in assay [1], the Kd is 2840 nM, the dH was -9.05 kcal/mol and the stoichiometry N stood at 1.
For “GST-pUL71 (283–336) (domain or fragment)”, in that order: 3020 nM, -10.1 kcal/mol and 0.91.
“GST-pUL71 (300–325) (domain or fragment)”: in assay [1], the Kd amounted to 2250 nM, the dH is -6.66 kcal/mol and the stoichiometry N stood at 1.22.
For `CC[C@H](C)[C@H](NC(=O)[C@@H](N)CCC(=O)O)C(=O)N[C@@H](CC(=O)O)C(=O)N1CCC[C@H]1C(=O)N[C@@H](CC(C)C)C(=O)N[C@@H](CC(C)C)C(=O)N[C@@H](Cc1c[nH]cn1)C(=O)N[C@@H](CCC(N)=O)C(=O)N[C@@H](CCC(=O)O)C(=O)N[C@H](C(=O)NCC(=O)N[C@@H](CC(C)C)C(=O)N[C@@H](Cc1ccc(O)cc1)C(=O)N[C@@H](CCC(N)=O)C(=O)N[C@@H](C)C(=O)N[C@@H](CC(C)C)C(=O)N1CCC[C@H]1C(=O)N[C@@H](CC(N)=O)C(=O)N[C@@H](C)C(=O)N[C@H](C(=O)N[C@H](C(=O)N[C@@H](CCC(=O)O)C(=O)N[C@@H](C)C(=O)N1CCC[C@H]1C(=O)N[C@@H](CO)C(=O)N[C@@H](CCC(=O)O)C(=O)O)[C@@H](C)O)C(C)C)[C@@H](C)O` [HHV6 pUL71 peptide] (H-EIDPLLHQETGLYQALPNAVTEAPSE-OH; N-terminus and C-terminus assumed), in assay [2] (mean ± SD, n = 2–4), the “-TΔS” value came to 1.01 ± 1.62 kcal/mol, the “N (stoichiometry)” value is on record as 1.18 ± 0.03, the ΔG is on record as -6.16 ± 0.11 kcal/mol and the ΔH is given as -7.17 ± 1.52 kcal/mol. Further, in assay [2] (replicate 1), the “-T∆S” value is -0.117 kcal/mol, the “N (sites)” value came to 1.16, the “∆G” value is -6.26 kcal/mol and the “∆H” value is -6.14 kcal/mol. Besides, in assay [2] (replicate 2), the “-T∆S” value was found to be 0.27 kcal/mol, the “N (sites)” value was 1.22, the “∆G” value is given as -6.18 kcal/mol and the “∆H” value was -6.45 kcal/mol. For the same molecule, in assay [2] (replicate 3), the “-T∆S” value is listed as 2.87 kcal/mol, the “N (sites)” value came out at 1.17, the “∆G” value is -6.04 kcal/mol and the “∆H” value is -8.91 kcal/mol.

B1: Vps20: the yeast CHMP6 homologue (protein, UniProt Q04272 2-221, looked up)
Vacuolar protein …: GQKSSKVHITKTDRAILEVKRSKDEIHKFTRRTDNLILVEKSQLKDLIRKNPENYKSNMKVRFLLKRIHYQEHLLQQASDQLINLENMVSTLEFKMVEKQFINGLKNGNEILKKLNKEFSNVDELMDDVQDQIAYQNEINETLSRSLVGTSNYEDDLDKELDALESELNPEKMNNAKVANMPSTEGLPSLPQGEQTEQKEREEFATEERSDTKEPLALLS
Consider B1, for which the Kd at yeast Vps4 is 188000 nM.

B2: Vfa1: yeast protein Vfa1 that is proposed to positively regulate Vps4 activity (protein, UniProt P40080 1-203, looked up)
VPS4-associated protein 1: MINEYVARKVALKDMQPCAICSKPSTTVLYNASGPDWLYTCEIHLQDNPQFVIPLYSTEYNEAVAQLKLVKGKMDSLTSAQTQLGSWDGWVTKIFSKKEKETNNSKDPDPTTTDSTDTSPQAKNDAEILSETKKQYSKILDKVTELQRKNRKYELAKIMFESRLLRKRTEQVNRERYLKEQENYSNTDPEELLRKHVFPSVPK
On to B2, for which, at yeast Vps4, the Kd was 1800 nM and the “fold tighter binding to Vps4 than Vps20” value is “approximately 100 fold”.

B3: VPS4A-FLAG-V13D: FLAG-tagged VPS4A with V13D substitution that prevents binding to MIM2 (protein, UniProt Q9UN37 1-437, looked up, variant V13D)
Vacuolar protein …: MTTSTLQKAIDLDTKATEEDKAKNYEEALRLYQHAVEYFLHAIKYEAHSDKAKESIRAKCVQYLDRAEKLKDYLRSKEKHGKKPVKENQSEGKGSDSDSEGDNPEKKKLQEQLMGAVVMEKPNIRWNDVAGLEGAKEALKEAVILPIKFPHLFTGKRTPWRGILLFGPPGTGKSYLAKAVATEANNSTFFSVSSSDLMSKWLGESEKLVKNLFELARQHKPSIIFIDEVDSLCGSRNENESEAARRIKTEFLVQMQGVGNNNDGTLVLGATNIPWVLDSAIRRRFEKRIYIPLPEEAARAQMFRLHLGSTPHNLTDANIHELARKTEGYSGADISIIVRDSLMQPVRKVQSATHFKKVCGPSRTNPSMMIDDLLTPCSPGDPGAMEMTWMDVPGDKLLEPVVCMSDMLRSLATTRPTVNADDLLKVKKFSEDFGQES
modifications: FLAG tag
With B3, the “association of VPS4A variant with pUL71 at juxtanuclear compartments” value with pUL71 is “prevents association”.

B4: VPS4A(L64D)-FLAG: FLAG-tagged VPS4A with L64D substitution that prevents binding to MIM1 (protein, UniProt Q9UN37 1-437, looked up, variant L64D)
Vacuolar protein …: MTTSTLQKAIDLVTKATEEDKAKNYEEALRLYQHAVEYFLHAIKYEAHSDKAKESIRAKCVQYDDRAEKLKDYLRSKEKHGKKPVKENQSEGKGSDSDSEGDNPEKKKLQEQLMGAVVMEKPNIRWNDVAGLEGAKEALKEAVILPIKFPHLFTGKRTPWRGILLFGPPGTGKSYLAKAVATEANNSTFFSVSSSDLMSKWLGESEKLVKNLFELARQHKPSIIFIDEVDSLCGSRNENESEAARRIKTEFLVQMQGVGNNNDGTLVLGATNIPWVLDSAIRRRFEKRIYIPLPEEAARAQMFRLHLGSTPHNLTDANIHELARKTEGYSGADISIIVRDSLMQPVRKVQSATHFKKVCGPSRTNPSMMIDDLLTPCSPGDPGAMEMTWMDVPGDKLLEPVVCMSDMLRSLATTRPTVNADDLLKVKKFSEDFGQES
modifications: FLAG tag
In the case of B4, the “association of VPS4A variant with pUL71 at juxtanuclear compartments” value in the assay with pUL71 is given as “efficiently recruited by pUL71”.

The values above are taken from publication PMC11218997, “Human cytomegalovirus deploys molecular mimicry to recruit VPS4A to sites of virus assembly” (PLOS Pathogens, 2024).
